The assay deals with holoTvFDPF3, highly active Class F flavodiiron protein 3 from Trichomonas vaginalis (TVAG_121610) (Trichomonas vaginalis). The experiment in a line: cryo-EM structure.

Take “holoTvFDPF3, highly active Class F flavodiiron protein 3 from Trichomonas vaginalis (TVAG_121610) (enzyme)”: the stoichiometry N (in general, a count of units in the complex or per binding partner) was determined as 2.

(Values after doi:10.1101/2022.02.02.478753.)
